test: melting temperature; melt of duplexes; conditions: sodium 0.0675 M; strand 1 µM

Substance	Tm
CGACGTGCTGTATGTGCTG+CAGCACATCATGCACGTCG ((((((((...((((((((+))))))))...))))))))	50.9 °C
CGACGTGCAGTATGTGCTG+CAGCACATTCGGCACGTCG ((((((((.(.((((((((+)))))))).).))))))))	53.1 °C
CGACGTGCGATATGTGCTG+CAGCACATGTTGCACGTCG ((((((((.(.((((((((+)))))))).).))))))))	54.6 °C
CGACGTGCCCTATGTGCTG+CAGCACATCGGGCACGTCG ((((((((((.((((((((+)))))))).))))))))))	58.7 °C
CGACGTGCAAGATGTGCTG+CAGCACATTTAGCACGTCG ((((((((.(.((((((((+)))))))).).))))))))	51.1 °C
CGACGTGCAAGATGTGCTG+CAGCACATTTGGCACGTCG ((((((((.(.((((((((+)))))))).).))))))))	52.5 °C
CGACGTGCGACATGTGCTG+CAGCACATTAAGCACGTCG ((((((((...((((((((+))))))))...))))))))	53.3 °C
CGACGTGCTTGATGTGCTG+CAGCACATCCGGCACGTCG ((((((((..(((((((((+)))))))))..))))))))	54.6 °C
CGACGTGCGGTATGTGCTG+CAGCACATACGGCACGTCG ((((((((.((((((((((+)))))))))).))))))))	58.5 °C
CGACGTGCTCCATGTGCTG+CAGCACATCATGCACGTCG ((((((((...((((((((+))))))))...))))))))	47.7 °C
CGACGTGCGACATGTGCTG+CAGCACATCGCGCACGTCG (((((((((..((((((((+))))))))..)))))))))	54.1 °C
CGACGTGCATCATGTGCTG+CAGCACATTTGGCACGTCG ((((((((...((((((((+))))))))...))))))))	48.2 °C
CGACGTGCGCCATGTGCTG+CAGCACATAGGGCACGTCG ((((((((.(.((((((((+)))))))).).))))))))	52.8 °C
CGACGTGCCGCATGTGCTG+CAGCACATCACGCACGTCG ((((((((...((((((((+))))))))...))))))))	48.3 °C
CGACGTGCATTATGTGCTG+CAGCACATCGAGCACGTCG ((((((((...((((((((+))))))))...))))))))	47.4 °C
CGACGTGCACCATGTGCTG+CAGCACATCCAGCACGTCG ((((((((...((((((((+))))))))...))))))))	42.2 °C
CGACGTGCCTCATGTGCTG+CAGCACATGCCGCACGTCG ((((((((..(((((((((+)))))))))..))))))))	51.4 °C
CGACGTGCATAATGTGCTG+CAGCACATGCAGCACGTCG ((((((((...((((((((+))))))))...))))))))	51.4 °C
CGACGTGCAAGATGTGCTG+CAGCACATAACGCACGTCG ((((((((...((((((((+))))))))...))))))))	48.6 °C
CGACGTGCCTAATGTGCTG+CAGCACATCCGGCACGTCG (((((((((..((((((((+))))))))..)))))))))	52 °C
CGACGTGCTCTATGTGCTG+CAGCACATCCTGCACGTCG ((((((((...((((((((+))))))))...))))))))	47.8 °C
CGACGTGCATCATGTGCTG+CAGCACATATGGCACGTCG ((((((((...((((((((+))))))))...))))))))	48.8 °C
CGACGTGCGCCATGTGCTG+CAGCACATTTAGCACGTCG ((((((((...((((((((+))))))))...))))))))	50.1 °C
CGACGTGCGGTATGTGCTG+CAGCACATGCCGCACGTCG ((((((((((.((((((((+)))))))).))))))))))	63.4 °C

Substance	Tm
CGACGTGCTTAATGTGCTG+CAGCACATAGTGCACGTCG ((((((((...((((((((+))))))))...))))))))	44 °C
CGACGTGCAACATGTGCTG+CAGCACATTCTGCACGTCG (((((((((..((((((((+))))))))..)))))))))	50.1 °C
CGACGTGCTTAATGTGCTG+CAGCACATCGCGCACGTCG ((((((((...((((((((+))))))))...))))))))	46.7 °C
CGACGTGCTGCATGTGCTG+CAGCACATCCGGCACGTCG ((((((((.(.((((((((+)))))))).).))))))))	51.9 °C
CGACGTGCTACATGTGCTG+CAGCACATGACGCACGTCG ((((((((..(((((((((+)))))))))..))))))))	50.8 °C
CGACGTGCTATATGTGCTG+CAGCACATCCAGCACGTCG (((((((((..((((((((+))))))))..)))))))))	50.2 °C
CGACGTGCGTAATGTGCTG+CAGCACATAAAGCACGTCG ((((((((.(.((((((((+)))))))).).))))))))	55 °C
CGACGTGCCTAATGTGCTG+CAGCACATCTAGCACGTCG ((((((((...((((((((+))))))))...))))))))	48.8 °C
CGACGTGCTTAATGTGCTG+CAGCACATTGGGCACGTCG ((((((((..(((((((((+)))))))))..))))))))	53.5 °C
CGACGTGCTGGATGTGCTG+CAGCACATAGCGCACGTCG ((((((((...((((((((+))))))))...))))))))	49.3 °C
CGACGTGCTTCATGTGCTG+CAGCACATTATGCACGTCG ((((((((.(.((((((((+)))))))).).))))))))	50.1 °C
CGACGTGCCTAATGTGCTG+CAGCACATAGGGCACGTCG (((((((((..((((((((+))))))))..)))))))))	55.4 °C
CGACGTGCGCCATGTGCTG+CAGCACATGTCGCACGTCG (((((((((.(((((((((+))))))))).)))))))))	59.7 °C
CGACGTGCGCTATGTGCTG+CAGCACATATAGCACGTCG ((((((((..(((((((((+)))))))))..))))))))	53.8 °C
CGACGTGCATGATGTGCTG+CAGCACATTCTGCACGTCG (((((((((..((((((((+))))))))..)))))))))	52.9 °C
CGACGTGCAACATGTGCTG+CAGCACATGAAGCACGTCG ((((((((..(((((((((+)))))))))..))))))))	54.3 °C
CGACGTGCCTCATGTGCTG+CAGCACATCACGCACGTCG ((((((((.(.((((((((+)))))))).).))))))))	46.1 °C
CGACGTGCTATATGTGCTG+CAGCACATAGTGCACGTCG ((((((((..(((((((((+)))))))))..))))))))	49 °C
CGACGTGCTATATGTGCTG+CAGCACATAATGCACGTCG ((((((((..(((((((((+)))))))))..))))))))	53 °C
CGACGTGCTTTATGTGCTG+CAGCACATACCGCACGTCG ((((((((..(((((((((+)))))))))..))))))))	48.3 °C
CGACGTGCGCCATGTGCTG+CAGCACATTCTGCACGTCG ((((((((...((((((((+))))))))...))))))))	47.8 °C
CGACGTGCCAGATGTGCTG+CAGCACATGGCGCACGTCG ((((((((...((((((((+))))))))...))))))))	50.4 °C
CGACGTGCCGAATGTGCTG+CAGCACATTAAGCACGTCG ((((((((..(((((((((+)))))))))..))))))))	52.3 °C
CGACGTGCATGATGTGCTG+CAGCACATGTCGCACGTCG ((((((((...((((((((+))))))))...))))))))	48.8 °C

Substance	Tm
CGACGTGCAGTATGTGCTG+CAGCACATTTGGCACGTCG ((((((((...((((((((+))))))))...))))))))	49.2 °C
CGACGTGCTATATGTGCTG+CAGCACATTGGGCACGTCG ((((((((...((((((((+))))))))...))))))))	50.5 °C
CGACGTGCTAGATGTGCTG+CAGCACATAGGGCACGTCG ((((((((...((((((((+))))))))...))))))))	51.5 °C
CGACGTGCCGGATGTGCTG+CAGCACATGCCGCACGTCG ((((((((.(.((((((((+)))))))).).))))))))	53.4 °C
CGACGTGCAGGATGTGCTG+CAGCACATAAGGCACGTCG ((((((((...((((((((+))))))))...))))))))	50.8 °C
CGACGTGCAACATGTGCTG+CAGCACATTACGCACGTCG ((((((((...((((((((+))))))))...))))))))	47.9 °C
CGACGTGCAGGATGTGCTG+CAGCACATAGGGCACGTCG ((((((((...((((((((+))))))))...))))))))	50.3 °C
CGACGTGCGATATGTGCTG+CAGCACATCTTGCACGTCG ((((((((.(.((((((((+)))))))).).))))))))	51.2 °C
CGACGTGCGTGATGTGCTG+CAGCACATCAAGCACGTCG ((((((((.((((((((((+)))))))))).))))))))	58.6 °C
CGACGTGCCCCATGTGCTG+CAGCACATCAGGCACGTCG (((((((((..((((((((+))))))))..)))))))))	52.5 °C
CGACGTGCGGGATGTGCTG+CAGCACATTTGGCACGTCG ((((((((...((((((((+))))))))...))))))))	51.3 °C
CGACGTGCCACATGTGCTG+CAGCACATCTCGCACGTCG ((((((((.(.((((((((+)))))))).).))))))))	46.8 °C
CGACGTGCGCGATGTGCTG+CAGCACATTTAGCACGTCG ((((((((...((((((((+))))))))...))))))))	52.2 °C
CGACGTGCGCCATGTGCTG+CAGCACATGTGGCACGTCG ((((((((..(((((((((+)))))))))..))))))))	54.1 °C
CGACGTGCGGCATGTGCTG+CAGCACATTTTGCACGTCG ((((((((...((((((((+))))))))...))))))))	48.7 °C
CGACGTGCATGATGTGCTG+CAGCACATGAAGCACGTCG ((((((((.(.((((((((+)))))))).).))))))))	50.3 °C
CGACGTGCCCTATGTGCTG+CAGCACATGCCGCACGTCG ((((((((...((((((((+))))))))...))))))))	47.7 °C
CGACGTGCTCAATGTGCTG+CAGCACATGTTGCACGTCG ((((((((...((((((((+))))))))...))))))))	50.1 °C
CGACGTGCTCTATGTGCTG+CAGCACATTTCGCACGTCG ((((((((...((((((((+))))))))...))))))))	47.3 °C
CGACGTGCCCTATGTGCTG+CAGCACATCCGGCACGTCG (((((((((..((((((((+))))))))..)))))))))	52.2 °C
CGACGTGCACGATGTGCTG+CAGCACATCTGGCACGTCG ((((((((..(((((((((+)))))))))..))))))))	53.6 °C
CGACGTGCAGAATGTGCTG+CAGCACATTTCGCACGTCG ((((((((..(((((((((+)))))))))..))))))))	53.5 °C
CGACGTGCTCGATGTGCTG+CAGCACATCAAGCACGTCG (((((((((.(((((((((+))))))))).)))))))))	57.2 °C
CGACGTGCTCTATGTGCTG+CAGCACATCCCGCACGTCG ((((((((...((((((((+))))))))...))))))))	47.5 °C

Source: the array DNA melting data of Ke et al.
